Protein stability index data for 29 sequences are collected here from the supplement of paper PMC10567573.

± gives the standard deviation.

The nature of the data set: protein stability index of a GFP-peptide fusion (GPS, HEK-293T) (PSI 1-6); higher = more stable.
[1] abbreviates: treatment: DMSO, c terminus: a fixed tail appended.
Setting [2] is: treatment: MLN4924 1 uM, 8 h, c terminus: a fixed tail appended.
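Also: 24-mer peptide tiles fused after GFP, lentivirally expressed, FACS-sorted into six equal bins by GFP/DsRed ratio, decoded by Illumina sequencing, PSI is the read-weighted mean bin number.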

Regarding YGLPIMVTLMVAKWTGDFFNKGIY [CLCN6], the protein stability index reads like this: under setting [1], 2.98 ± 0.25; under setting [2], 3.4 ± 0.42.

For RNGGKYCEGRRTRFRSCNTEDCPT [ADAMTS4], the protein stability index runs as follows: under setting [1], 4.15 ± 0.34; under setting [2], 4.09 ± 0.32.

As to REQILRVKDTDDVPMILVGNKCDL [RAP1B], the protein stability index turned out to be 3.95 ± 0.28 under setting [1] and 3.98 ± 0.14 under setting [2].

LRVSPDGTAFCSGSWDHTLRVWA [GNB5] displayed a protein stability index (treatment: DMSO, c terminus: native) of 2.95 ± 0.33 and a protein stability index (treatment: MLN4924 1 uM, 8 h, c terminus: native) of 2.77 ± 0.77.

For the sequence LPAEARERSRGRSISRGRHARTHP [MATN2], the protein stability index is 5.05 ± 0.5 under setting [1] and 5.17 ± 0.23 under setting [2].

ADGQESTPPTPAPTSGIVGALMEV [WASL]: the protein stability index runs as follows: under setting [1], 4.86 ± 0.1; under setting [2], 4.56 ± 0.17.

For PLIKATVGLIRNLALCPANHAPLR [CTNNB1], the protein stability index by setting is: under setting [1], 2.39 ± 0.47; under setting [2], 2.55 ± 0.43.

Consider LDVTVQSFGWSDRAKVKTDDIARI [FAM98B], for which the protein stability index by setting is: under setting [1], 2.98 ± 0.28; under setting [2], 2.89 ± 0.36.

For GSAEKQAGEAHMAADGETNGSCEN [EHMT1], the protein stability index was found to be 5.49 ± 0.37 under setting [1] and 5.6 ± 0.2 under setting [2].

The sequence MMRTQCLLGLRTFVAFAAKLWSFF [CTDNEP1] had a protein stability index under setting [1] of 4.22 ± 0.2 and a protein stability index under setting [2] of 4.02 ± 0.29.

QRVGFGDDFDEDELMAELEELEQE [CHMP4C]: the protein stability index runs as follows: under setting [1], 5.33 ± 0.4; under setting [2], 5.35 ± 0.23.

Consider FFYPLVEDPYMMGRIACANVLSDL [SEPHS2], for which the protein stability index is, setting by setting: under setting [1], 2.38 ± 0.46; under setting [2], 2.19 ± 0.47.

Sequence SPQEDGQIMFDVEMHTSRDHSSQS [BNIP3L] yielded a protein stability index under setting [1] of 5.21 ± 0.2 and a protein stability index under setting [2] of 5.21 ± 0.13.

As to LKTSRKDVKDKETTENENTKFEVR [CHGB], the protein stability index runs as follows: under setting [1], 5.03 ± 0.11; under setting [2], 5.22 ± 0.092.

Consider TVKFANNPSQKTGQALLTHLYQSS [ELAVL3], for which the protein stability index by setting is: under setting [1], 3.01 ± 0.22; under setting [2], 3.03 ± 0.38.

As for LIKEGGMPLLRDIIKMATARQETK [ZER1], the protein stability index by setting is: under setting [1], 2.69 ± 0.32; under setting [2], 2.65 ± 0.38.

Consider HRKRGSQPPDMASALTDRTSRAPS [RSPH3], for which the protein stability index reads like this: under setting [1], 4.89 ± 0.17; under setting [2], 4.95 ± 0.18.

FGGQDENKQTLSSGEKYDPDANTW [GAN]: the protein stability index under setting [1] was determined as 5.06 ± 0.074 and the protein stability index under setting [2] was 5.01 ± 0.35.

On to SSNFHINVEESVDGQVVSSHKREI [KRT15], for which the protein stability index under setting [1] was determined as 4.7 ± 0.18 and the protein stability index under setting [2] stood at 4.68 ± 0.18.

Turning to QLILFGLSNQLAVTFREENTIAFR [MCOLN1], the protein stability index under setting [1] is 2.65 ± 0.49 and the protein stability index under setting [2] is 2.33 ± 0.64.

Consider LVVQIDNAKLAADDFRTKYQTEQS [KRT33B], for which the protein stability index runs as follows: under setting [1], 3.18 ± 0.19; under setting [2], 3.36 ± 0.16.

Consider NEEIRAVGRLKRERSMSENAVRQN [MFF], for which the protein stability index runs as follows: under setting [1], 5.15 ± 0.2; under setting [2], 4.87 ± 0.27.

With QHPDMSVTKVVVHKETEITPEDGE [EPB41L3], the protein stability index by setting is: under setting [1], 5.33 ± 0.23; under setting [2], 5.39 ± 0.21.

As to QLCDVSIRVQGREFRAHRAVLAAS [ZBTB22], the protein stability index runs as follows: under setting [1], 2.58 ± 0.35; under setting [2], 2.77 ± 0.3.

With AGEDNDELIDNLKEAQYIRTELVE [PCMTD2], the protein stability index was determined as 5.13 ± 0.18 under setting [1] and 5.02 ± 0.17 under setting [2].

PIAPEVEDPEENPYGPPPDAVQTS [RBBP5]: the protein stability index was 5.56 ± 0.17 under setting [1] and 5.54 ± 0.19 under setting [2].

Take TYEPFCKVPVITSSKEEQKLIATS [KCTD10]: the protein stability index is, setting by setting: under setting [1], 4.27 ± 0.2; under setting [2], 4.16 ± 0.37.

In the case of LFYSAEVEMLCDQAWGSMLEVPAG [CCDC3], the protein stability index is, setting by setting: under setting [1], 1.92 ± 0.53; under setting [2], 2.26 ± 0.41.

As to LQSCGDLHTFTPAGRPRAERRPRR [FAM189A2], the protein stability index under setting [1] came out at 4.95 ± 0.27 and the protein stability index under setting [2] was 5.07 ± 0.23.
